Positions count from the first letter of the chain named. In names and notes the source's numbering stands.
Experiments:
[1] = biological target: dephosphorylated Aurora A kinase 122-403 (human) (UniProt O14965); assay: AUC; sedimentation velocity, 50,000 rpm, 18°C; 100-160 μM Aurora A + 500 μM AMPPCP, with or without 100 μM TPX2 1-25, kinase assay buffer; dimer to monomers
[2] = biological target: dephosphorylated Aurora A kinase 122-403 (human) (UniProt O14965); assay: AUC + other: SAXS; estimate from the concentration dependence of the dimer in AUC and SAXS; dimer to monomers
[3] = biological target: dephosphorylated Aurora A kinase 122-403 (human) (UniProt O14965); assay: SAXS; Aurora A 0.33-6.6 mg/ml with 1 mg/mL TPX2 1-25, 500 μM AMPPCP, kinase assay buffer, 20°C; curves fitted with monomer and dimer of the X-ray structures
[4] = biological target: T1, phosphorylated Aurora A kinase 122-403 (human, UniProt O14965 122-403, heavily phosphorylated (multiple sites, by autophosphorylation and E. coli kinases during expression); T288 in the activation loop phosphorylated); assay: ITC; phosphorylated Aurora A
T1 chain: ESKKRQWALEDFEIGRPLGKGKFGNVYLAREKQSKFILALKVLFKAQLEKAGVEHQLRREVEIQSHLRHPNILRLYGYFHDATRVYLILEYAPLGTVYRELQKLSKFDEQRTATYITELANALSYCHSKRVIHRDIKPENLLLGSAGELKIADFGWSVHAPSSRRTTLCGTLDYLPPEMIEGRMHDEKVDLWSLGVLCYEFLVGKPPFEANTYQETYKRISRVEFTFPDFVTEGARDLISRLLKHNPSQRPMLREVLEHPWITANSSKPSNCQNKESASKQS

[5] = biological target: T2, dephosphorylated Aurora A kinase 122-403 (human, UniProt O14965 122-403); assay: ITC
T2 chain: T1 chain

[6] = biological target: T3, Aurora A^122−403 T288V (human, UniProt O14965 122-403, T288V); assay: cell-based or functional assay
T3 sequence (looked up): T1 chain with T167V

[7] = biological target: T4, dephosphorylated Aurora A kinase 122-403 (human, UniProt O14965 122-403); assay: ITC; Nano ITC, 1 μl injections every 180 s, 25°C; 20 mM TrisHCl, 200 mM NaCl, 3% glycerol, 1 mM TCEP, pH 7.50; independent fit model; Aurora A 13-90 μM, TPX2 250-940 μM; conditions: both partners purified
T4 construct: Aurora A kinase, human, residues 122-403, codon-optimized, completely dephosphorylated (confirmed by MS); Monomer and dimer are both seen in solution; also called deP Aurora A; deP Aurora A^122−403
T4 sequence (looked up): T1 chain

[8] = biological target: the molecule itself; assay: AUC; sedimentation velocity, 50,000 rpm, 18°C; 100-160 μM Aurora A + 500 μM AMPPCP, with or without 100 μM TPX2 1-25, kinase assay buffer; dimer to monomers

dephosphorylated Aurora A kinase 122-403 (from UniProt O14965 122-403) (domain or fragment)
stoichiometry N [1]: 2 | Kd [2]: > 300000 nM | percent dimer [3]: 9%

MSQVKSSYSYDAPSDFINFSSLDDEGDTQNIDSWFEEKANLENKL [TPX2^1−45]
Kd [4]: 2000 nM | Kd [5]: 5000 nM

MSQVKSSYSYDAPSDFINFSSLDDE [TPX2^1−25]
Kd [4]: 1800 nM | Kd [5]: 2000 nM

B1: TPX2^1−147 (Targeting Protein for Xklp2, residues 1-147) (domain or fragment, UniProt Q9ULW0 1-147, looked up)
chain: MSQVKSSYSYDAPSDFINFSSLDDEGDTQNIDSWFEEKANLENKLLGKNGTGGLFQGKTPLRKANLQQAIVTPLKPVDNTYYKEAEKENLVEQSIPSNACSSLEVEAAISRKTPAQPQRRSLRLSAQKDLEQKEKHHVKMKAKRCAT
notes: TPX2 (Targeting Protein for Xklp2), residues 1-147; also called longer TPX2 variant
Kd [4]: 2900 nM | KA from the dose-dependence of TPX2 1-147 on AP phosphorylation kinetics by 1 μM Aurora A T288V [6]: 1 µM | Kd [7]: 1100 ± 100 nM

B2: Aurora A^125−392 D274A (domain or fragment, human, UniProt O14965 125-392, looked up)
chain: KRQWALEDFEIGRPLGKGKFGNVYLAREKQSKFILALKVLFKAQLEKAGVEHQLRREVEIQSHLRHPNILRLYGYFHDATRVYLILEYAPLGTVYRELQKLSKFDEQRTATYITELANALSYCHSKRVIHRDIKPENLLLGSAGELKIAAFGWSVHAPSSRRTTLCGTLDYLPPEMIEGRMHDEKVDLWSLGVLCYEFLVGKPPFEANTYQETYKRISRVEFTFPDFVTEGARDLISRLLKHNPSQRPMLREVLEHPWITANSSKPSN
notes: Aurora A kinase, human, residues 125-392, D274A; The purification of this mutant is not described on its own; also called kinase-dead Aurora A D274A; catalytically impaired D274A mutant; source: E. coli, purified (short 125-392 construct in pET28a)
stoichiometry N [8]: 2
